The source of these data is the supplement of paper PMC7877785.

A short description of the data set: self-splicing fitness, log relative to wild type (ln ratio); higher = more splicing; Tetrahymena group I intron in knt gene, E. coli kanamycin selection, DiMSum; sequences stand for … in CUCUCU…GGAGGGAAAAGUUAUCAGGCAUGCACCUGGUAGCUAGUCUUUAAACCAAUAGAUUGCAUCGGUUUAAAAGGCAAGACCGUCAAAUUGCGGGAAAGGGGUCAACAGCCGUUCAGUACCAAGUCUCAGGGGAAACUUUGAGAUGGCCUUGCAAAGGGUAUGGUAAUAAGCUGACGGACAUGGUCCUAACCACGCAGCCAAGUCCUAAGUCAACAGAUCUUCUGUUGAUAUGGAUGCAGUUCACAGACUAAAUGUCGGUCGGGGAAGAUGUAUUCUUCUCAUAAGAUAUAGUCGGACCUCUCCUUAAUGGGAGCUAGCGGAUGAAGUGAUGCAACACUGGAGCCGCUGGGAACUAAUUUGUAUGCGAAAGUAUAUUGAUUAGUUUUGGAGUACUCGUGGUCG
In short, it runs like this:
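Library with all eight P1ex-region intron nucleotides randomised, intron inside the knt kanamycin-resistance gene on pET-22b(+), in E. coli BL21(DE3). Cells grew overnight at 37°C or 30°C on LB agar with or without 25 μg/mL kanamycin (plus 100 μg/mL carbenicillin, 50 μM IPTG, 0.2% rhamnose), in six replicate transformations. Pooled colonies were amplicon-sequenced on Illumina HiSeq 2500. DiMSum fitness is the error-weighted combination of wild-type-normalised replicate fold changes, kanamycin versus none.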

± gives the uncertainty stated by the source.

Turning to GGUGAGCAAUAUUACGUCAU, the “self-splicing fitness (ln)” value was -3.97 ± 0.19 (30 °C) and -2.76 ± 0.31 (37 °C). The matching figures for GGUGAGCAAUAUUACGUCUA: -1.91 ± 0.16 and -1.42 ± 0.15. In the case of GGUGAGCAAUAUUACGUGGC, the “self-splicing fitness (ln)” value (37 °C) is -2.59 ± 0.33. On to GGUGAGCAAUAUUACGUGUA, for which the “self-splicing fitness (ln)” value reads like this: (30 °C) -2.8 ± 0.25; (37 °C) -3.22 ± 0.3.

For the sequence GGUUAGCAAUAUUACGAAGC, the “self-splicing fitness (ln)” value runs as follows: (30 °C) -0.991 ± 0.17; (37 °C) -1.24 ± 0.18. Take GGUUAGCAAUAUUACGAAUU: the “self-splicing fitness (ln)” value by setting is: (30 °C) 0.0573 ± 0.13; (37 °C) -0.482 ± 0.16. For the sequence GGUUAGCAAUAUUACGACAU, the “self-splicing fitness (ln)” value reads like this: (30 °C) 0.0748 ± 0.014; (37 °C) 0.332 ± 0.034. The matching figures for GGUUAGCAAUAUUACGACCU: -1.72 ± 0.35 and -0.0941 ± 0.33. Regarding GGUUAGCAAUAUUACGAGGG, the “self-splicing fitness (ln)” value (30 °C) was -3.05 ± 0.21 and the “self-splicing fitness (ln)” value (37 °C) was -2.28 ± 0.34.

Consider GGUUAGCAAUAUUACGAGUG, for which the “self-splicing fitness (ln)” value by setting is: (30 °C) -2.59 ± 0.35; (37 °C) -1.39 ± 0.19. The matching figures for GGUUAGCAAUAUUACGCAAA: -1.62 ± 0.39 and -2.21 ± 0.31. Turning to GGUUAGCAAUAUUACGCCUG, the “self-splicing fitness (ln)” value was -2.89 ± 0.38 (30 °C) and -2.7 ± 0.48 (37 °C). In the same order, the values of GGUUAGCAAUAUUACGCGCA are 1.25 ± 0.28 and 0.766 ± 0.34. In the same order, the values of GGUUAGCAAUAUUACGGCUU are -0.26 ± 0.082 and 1.05 ± 0.096. Turning to GGUUAGCAAUAUUACGGUAC, the “self-splicing fitness (ln)” value was -1.21 ± 0.11 (30 °C) and -0.6 ± 0.15 (37 °C). In the same order, the values of GGUUAGCAAUAUUACGUCAA are -0.285 ± 0.11 and -0.43 ± 0.13. In the same order, the values of GGUUAGCAAUAUUACGUCGA are -1.43 ± 0.14 and -0.492 ± 0.14. As to GGUUAGCAAUAUUACGUGGC, the “self-splicing fitness (ln)” value (30 °C) is -3.21 ± 0.34 and the “self-splicing fitness (ln)” value (37 °C) is -1.64 ± 0.19.

As for GGUUAGCAAUAUUACGUGUG, the “self-splicing fitness (ln)” value (30 °C) is -2.43 ± 0.12 and the “self-splicing fitness (ln)” value (37 °C) is -1.56 ± 0.11. In the case of GGUUAGCAAUAUUACGUUGA, the “self-splicing fitness (ln)” value is -2 ± 0.2 (30 °C) and -1.54 ± 0.17 (37 °C). The matching figures for GUAAAGCAAUAUUACGAAAA: -1.52 ± 0.15 and 0.0796 ± 0.28.

On to GUAAAGCAAUAUUACGAAAG, for which the “self-splicing fitness (ln)” value runs as follows: (30 °C) -2.91 ± 0.19; (37 °C) -1.33 ± 0.19. The matching figures for GUAAAGCAAUAUUACGAAGG: -3.13 ± 0.13 and -1.92 ± 0.17. In the same order, the values of GUAAAGCAAUAUUACGAAUA are -1.68 ± 0.093 and -0.495 ± 0.15. As for GUAAAGCAAUAUUACGAGAG, the “self-splicing fitness (ln)” value was -3.16 ± 0.16 (30 °C) and -3.37 ± 0.23 (37 °C). Consider GUAAAGCAAUAUUACGAGCC, for which the “self-splicing fitness (ln)” value is -2.51 ± 0.33 (30 °C) and -2.56 ± 0.26 (37 °C).

In the case of GUAAAGCAAUAUUACGAGGU, the “self-splicing fitness (ln)” value by setting is: (30 °C) -3.07 ± 0.13; (37 °C) -1.83 ± 0.24.

As to GUAAAGCAAUAUUACGAGUC, the “self-splicing fitness (ln)” value runs as follows: (30 °C) -2.56 ± 0.15; (37 °C) -1.38 ± 0.19. The matching figures for GUAAAGCAAUAUUACGAUGA: -0.0816 ± 0.064 and -0.318 ± 0.068. As for GUAAAGCAAUAUUACGCAGA, the “self-splicing fitness (ln)” value is -2.79 ± 0.22 (30 °C) and -0.446 ± 0.17 (37 °C).

In the case of GUAAAGCAAUAUUACGCGAG, the “self-splicing fitness (ln)” value by setting is: (30 °C) -0.869 ± 0.068; (37 °C) -0.158 ± 0.091. For GUAAAGCAAUAUUACGCGGC, the “self-splicing fitness (ln)” value reads like this: (30 °C) -2.96 ± 0.21; (37 °C) -0.672 ± 0.18. The matching figures for GUAAAGCAAUAUUACGCUAG: -1.03 ± 0.079 and -0.533 ± 0.1. In the same order, the values of GUAAAGCAAUAUUACGGAAC are -1.56 ± 0.12 and -1.57 ± 0.21. Consider GUAAAGCAAUAUUACGGAGA, for which, for the setting “30 °C”, the “self-splicing fitness (ln)” value is -3.54 ± 0.28.

With GUAAAGCAAUAUUACGGGAU, the “self-splicing fitness (ln)” value by setting is: (30 °C) -1.62 ± 0.082; (37 °C) -0.341 ± 0.11. In the same order, the values of GUAAAGCAAUAUUACGGGUG are -1.6 ± 0.065 and -0.848 ± 0.091. The matching figures for GUAAAGCAAUAUUACGGUCC: -1.23 ± 0.21 and -0.634 ± 0.25.

For the sequence GUAAAGCAAUAUUACGGUGC, the “self-splicing fitness (ln)” value is, setting by setting: (30 °C) -2.22 ± 0.083; (37 °C) -0.36 ± 0.083. The matching figures for GUAAAGCAAUAUUACGGUUC: -0.687 ± 0.097 and -0.679 ± 0.13.

GUAAAGCAAUAUUACGUAAA: the “self-splicing fitness (ln)” value (30 °C) was -2.08 ± 0.1 and the “self-splicing fitness (ln)” value (37 °C) was -0.853 ± 0.11. The matching figures for GUAAAGCAAUAUUACGUACC: -3.89 ± 0.2 and -2.55 ± 0.2. The matching figures for GUAAAGCAAUAUUACGUACU: -1.01 ± 0.076 and -0.965 ± 0.13. The matching figures for GUAAAGCAAUAUUACGUCGG: -2.85 ± 0.12 and -1.05 ± 0.13.

Consider GUAAAGCAAUAUUACGUGGA, for which the “self-splicing fitness (ln)” value is, setting by setting: (30 °C) -2.51 ± 0.095; (37 °C) -1.38 ± 0.073.

Take GUAAAGCAAUAUUACGUUUU: the “self-splicing fitness (ln)” value is -2.7 ± 0.076 (30 °C) and -1.9 ± 0.1 (37 °C). The matching figures for GUACAGCAAUAUUACGAACC: -1.19 ± 0.14 and -0.582 ± 0.18. The matching figures for GUACAGCAAUAUUACGAAUA: -3.26 ± 0.22 and -1.67 ± 0.13. The matching figures for GUACAGCAAUAUUACGACUU: -0.754 ± 0.059 and -0.179 ± 0.073.

For GUACAGCAAUAUUACGAUCC, the “self-splicing fitness (ln)” value is -0.427 ± 0.14 (30 °C) and 0.81 ± 0.18 (37 °C). The matching figures for GUACAGCAAUAUUACGAUUG: -5.06 ± 0.25 and -2.87 ± 0.17. In the same order, the values of GUACAGCAAUAUUACGCGCC are -2.15 ± 0.21 and -1.49 ± 0.34.

In the case of GUACAGCAAUAUUACGCGGA, the “self-splicing fitness (ln)” value reads like this: (30 °C) -2.49 ± 0.21; (37 °C) -0.988 ± 0.15. In the same order, the values of GUACAGCAAUAUUACGCGGU are -3.17 ± 0.15 and -2.31 ± 0.15. The matching figures for GUACAGCAAUAUUACGCUGU: -3.5 ± 0.16 and -3 ± 0.21. The matching figures for GUACAGCAAUAUUACGGAGU: -3.06 ± 0.18 and -1.88 ± 0.15. For the sequence GUACAGCAAUAUUACGGAUA, the “self-splicing fitness (ln)” value by setting is: (30 °C) -2.46 ± 0.12; (37 °C) -2.36 ± 0.14. GUACAGCAAUAUUACGGAUC: the “self-splicing fitness (ln)” value is -0.86 ± 0.081 (30 °C) and -0.551 ± 0.11 (37 °C). The matching figures for GUACAGCAAUAUUACGGCGC: -0.365 ± 0.082 and -0.0882 ± 0.095. Consider GUACAGCAAUAUUACGGGAG, for which the “self-splicing fitness (ln)” value is -3.04 ± 0.21 (30 °C) and -1.92 ± 0.15 (37 °C). The matching figures for GUACAGCAAUAUUACGGGGC: -3.74 ± 0.35 and -2.77 ± 0.47. In the same order, the values of GUACAGCAAUAUUACGUCAA are -1.75 ± 0.16 and -2.38 ± 0.21. The matching figures for GUACAGCAAUAUUACGUCCG: -3.2 ± 0.23 and -1.74 ± 0.17. For the sequence GUACAGCAAUAUUACGUCGU, the “self-splicing fitness (ln)” value is -1.34 ± 0.11 (30 °C) and 0.338 ± 0.11 (37 °C).

Take GUACAGCAAUAUUACGUGCA: the “self-splicing fitness (ln)” value was -3.96 ± 0.22 (30 °C) and -2.17 ± 0.16 (37 °C). The matching figures for GUACAGCAAUAUUACGUGCG: -2.57 ± 0.12 and -1.21 ± 0.095.

GUACAGCAAUAUUACGUGUU: the “self-splicing fitness (ln)” value was -2.74 ± 0.075 (30 °C) and -1.54 ± 0.1 (37 °C). As for GUACAGCAAUAUUACGUUAU, the “self-splicing fitness (ln)” value is -4.01 ± 0.25 (30 °C) and -1.87 ± 0.14 (37 °C). The matching figures for GUACAGCAAUAUUACGUUCG: -1.45 ± 0.061 and -0.316 ± 0.079. In the same order, the values of GUACAGCAAUAUUACGUUCU are -1.98 ± 0.1 and -0.102 ± 0.1. The matching figures for GUAGAGCAAUAUUACGACAA: 0.152 ± 0.14 and -0.0812 ± 0.17. As for GUAGAGCAAUAUUACGAGGC, the “self-splicing fitness (ln)” value runs as follows: (30 °C) -3.01 ± 0.19; (37 °C) -2.63 ± 0.29. The matching figures for GUAGAGCAAUAUUACGAGGU: -1.12 ± 0.16 and -1.33 ± 0.32. The matching figures for GUAGAGCAAUAUUACGAUCG: -2.6 ± 0.15 and -0.951 ± 0.17. In the same order, the values of GUAGAGCAAUAUUACGAUGG are -2.34 ± 0.091 and -1.59 ± 0.11.
